Residue numbers refer to the chain shown, from its start.
B1: DART-A-M14 (bispecific antibody)
chain 1: DFVMTQSPDSLAVSLGERVTMSCKSSQSLLNSGNQKNYLTWYQQKPGQPPKLLIYWASTRESGVPDRFSGSGSGTDFTLTISSLQAEDVAVYYCQNDYSYPYTFGQGTKLEIKGGGSGGGGEVQLVESGGGLVQPGGSLRLSCAASGFTFSDYAMNWVRQAPGKGLEWVGRIRSKYNNYATYYADSVKDRFTISRDDSKNSLYLQMNSLKTEDTAVYYCVRHGNFGNSYVSWFAYWGQGTLVTVSSGGCGGGKVAALKEKVAALKEKVAALKEKVAALKE
chain 2: QAVVTQEPSLTVSPGGTVTLTCRSSTGAVTTSNYANWVQQKPGQAPRGLIGGTNKRAPWTPARFSGSLLGGKAALTITGAQAEDEADYYCALWYSNLWVFGGGTKLTVLGGGGSGGGGEVQLVQSGAELKKPGASVKVSCKASGYTFTDYYMKWVRQAPGQGLEWIGDIIPSNGATFYNQKFKGRVTITVDKSTSTAYMELSSLRSEDTAVYYCARSHLLRASWFAYWGQGTLVTVSSGGCGGGEVAALEKEVAALEKEVAALEKEVAALEK
B2: DART-A-M7 (bispecific antibody)
chain 1: B1 chain 1 with D152T, G223D
chain 2: B1 chain 2
B3: DART-A-M2 (bispecific antibody)
chain 1: B1 chain 1 with D152T, G223K, S231T
chain 2: B1 chain 2
B4: DART-A-M17 (bispecific antibody)
chain 1: B1 chain 1 with D152T, Y153T
chain 2: B1 chain 2
B5: DART-A-M15 (bispecific antibody)
chain 1: B1 chain 1 with D152E
chain 2: B1 chain 2
B6: DART-A-M18 (bispecific antibody)
chain 1: B1 chain 1 with D152T, A154G
chain 2: B1 chain 2
B7: DART-A-M19 (bispecific antibody)
chain 1: B1 chain 1 with D152T, G223K, F225I
chain 2: B1 chain 2
B8: DART-A-M13 (bispecific antibody)
chain 1: B1 chain 1 with D152T, Y235E
chain 2: B1 chain 2
B9: DART-A-M12 (bispecific antibody)
chain 1: B1 chain 1 with D152T, W232Y
chain 2: B1 chain 2

The binders below were run against CD3 on T-cells (UniProt P07766) (assay: cell-based or functional assay).
CD3 on T-cells, sequence (P07766 23-207): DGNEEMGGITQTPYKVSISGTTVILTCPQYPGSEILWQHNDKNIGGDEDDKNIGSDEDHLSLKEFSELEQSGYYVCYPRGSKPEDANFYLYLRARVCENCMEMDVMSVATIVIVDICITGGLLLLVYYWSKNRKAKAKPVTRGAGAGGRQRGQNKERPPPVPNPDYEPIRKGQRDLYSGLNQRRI

| EC50 of cytolysis at 18 hours (CTL assay, Pan-T-cells and MOLM-13, E:T = 5:1) | EC50 of cytolysis at 42 hours (CTL assay, Pan-T-cells and MOLM-13, E:T = 5:1) | R: ratio of 18 hour EC50 to DART-A-WT (CTL assay, Pan-T-cells and MOLM-13, E:T = 5:1) | R: ratio of 42 hour EC50 to DART-A-WT (CTL assay, Pan-T-cells and MOLM-13, E:T = 5:1) | Binder | max % CytoTox at 18 hours (CTL assay, Pan-T-cells and MOLM-13, E:T = 5:1) | max % CytoTox at 42 hours (CTL assay, Pan-T-cells and MOLM-13, E:T = 5:1) |
| --- | --- | --- | --- | --- | --- | --- |
| 0.492 ng/mL | 0.11 ng/mL | 6.2 | 39.3 | B1 | 44.7% | 31.4% |
| 0.304 ng/mL | 0.03 ng/mL | 3.8 | 10.8 | B2 | 41.4% | 32.5% |
| 8.11 ng/mL | 0.693 ng/mL | 103 | 247 | B3 | 32.3% | 32.8% |
| 1.28 ng/mL | 0.126 ng/mL | 16.2 | 44.9 | B4 | 44.2% | 30.7% |
| 4.16 ng/mL | 0.975 ng/mL | 52.7 | 347 | B5 | 42.7% | 32% |
| 4.69 ng/mL | 0.91 ng/mL | 59.3 | 324 | B6 | 41.3% | 30.6% |
| 0.68 ng/mL | 0.11 ng/mL | 8.6 | 39.1 | B7 | 41% | 32.8% |
| 1.22 ng/mL | 0.203 ng/mL | 15.5 | 72.3 | B8 | 45.1% | 31.5% |
| 0.372 ng/mL | 0.067 ng/mL | 4.7 | 24 | B9 | 49.7% | 31.5% |

Each binder was assayed against CD3 (as used for the BIACORE kinetics of Table 11) (UniProt P07766) (assay: SPR (BIACORE)).
CD3 (as used for the BIACORE kinetics of Table 11), sequence (P07766 23-126): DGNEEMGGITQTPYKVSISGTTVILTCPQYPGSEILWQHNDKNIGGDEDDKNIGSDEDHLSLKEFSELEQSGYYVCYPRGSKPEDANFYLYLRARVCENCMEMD

| Kd | R (KD ratio to DART-A-WT) | R (ka ratio to DART-A-WT) | R (kd ratio to DART-A-WT) | koff | kon | Binder |
| --- | --- | --- | --- | --- | --- | --- |
| 46.6 nM | 5.7 | 0.6 | 3.5 | 0.0143 s⁻¹ | 308000 M⁻¹ s⁻¹ | B1 |
| 22.5 nM | 2.8 | 2 | 5.6 | 0.0229 s⁻¹ | 1.02e+06 M⁻¹ s⁻¹ | B2 |
| 12.7 nM | 1.6 | 6.1 | 9.6 | 0.0391 s⁻¹ | 3.07e+06 M⁻¹ s⁻¹ | B3 |
| 57.2 nM | 7 | 1.7 | 12 | 0.0478 s⁻¹ | 837000 M⁻¹ s⁻¹ | B4 |
| 107 nM | 13 | 0.7 | 9.2 | 0.0375 s⁻¹ | 352000 M⁻¹ s⁻¹ | B5 |
| 205 nM | 25 | 0.6 | 14 | 0.0588 s⁻¹ | 287000 M⁻¹ s⁻¹ | B6 |
| 54.6 nM | 6.7 | 1.5 | 10 | 0.0411 s⁻¹ | 753000 M⁻¹ s⁻¹ | B7 |
| 68.6 nM | 8.4 | 0.6 | 5.4 | 0.022 s⁻¹ | 321000 M⁻¹ s⁻¹ | B8 |
| 12.8 nM | 1.6 | 1.7 | 2.7 | 0.0111 s⁻¹ | 866000 M⁻¹ s⁻¹ | B9 |

Source: patent publication US20240043537A1
